Data published in publication PMC4219823, “A Nuclear Factor of High Mobility Group Box Protein in Toxoplasma gondii”.

Molecular target: T1, TgGRA1 (Toxoplasma gondii, UniProt P13403 25-190)
T1 sequence: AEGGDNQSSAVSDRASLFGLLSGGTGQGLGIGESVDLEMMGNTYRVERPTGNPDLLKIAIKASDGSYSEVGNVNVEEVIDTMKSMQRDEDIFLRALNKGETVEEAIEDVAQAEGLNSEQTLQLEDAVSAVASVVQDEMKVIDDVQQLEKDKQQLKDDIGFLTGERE
Assay: EMSA; 2 mg/mL protein
Details: protein: recombinant; tags: His; label: biotin (TdT labeling); four-way junction of 4 strands

B1: 4H cruciform DNA (4H-a/4H-b/4H-c/4H-d) (structured_DNA)
DNA 1: AACAGTAGCTTATTCGAGCTCGCGCCCTATCACGACGACTA
DNA 2: GTAGTCGTCGTGATAGGTGCAGGGGTTATAGGG
DNA 3: CCCTATAACCCCTGCATTGAATTCCAGTCTGATAA
DNA 4: TTTATCAGACTGGAATTCAAGCGCGAGCTCGAATAAGCTACTGT
binding result: no binding
